Experimental data: publication doi:10.1101/2023.08.08.552426

Legend:
[1] = target: smORF5 (A0901_04910) (Apilactobacillus kunkeei strain A0901); assay: NMR relaxation
[2] = target: smORF7 (A0901_04830) (Apilactobacillus kunkeei strain A0901); assay: NMR relaxation

Substance | stoichiometry N [1] | stoichiometry N [2]
smORF5 (A0901_04910) (natural protein) | 2 | –
smORF7 (A0901_04830) (natural protein) | – | 2
